Three molecules from patent CN103012589A (SHANGHAI SERUM BIO TECHNOLOGY CO LTD; INST BIOENGINEERING …, dated 2013) can be followed below.

T1: 重组人VEGF165 (human, UniProt P15692-4 27-191)
T1 construct: also called VEGF双体; 人血管内皮细胞生长因子
T1 sequence: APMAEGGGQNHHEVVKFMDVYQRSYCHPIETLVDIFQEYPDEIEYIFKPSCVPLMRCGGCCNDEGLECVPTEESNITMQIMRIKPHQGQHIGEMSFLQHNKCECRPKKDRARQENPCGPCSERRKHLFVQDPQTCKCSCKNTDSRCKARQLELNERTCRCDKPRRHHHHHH

B1: VA6L-K90D_D92V (antibody, V domains shown)
VH: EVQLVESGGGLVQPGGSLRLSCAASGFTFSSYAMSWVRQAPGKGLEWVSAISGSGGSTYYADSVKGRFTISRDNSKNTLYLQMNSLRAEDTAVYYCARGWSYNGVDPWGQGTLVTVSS
VL: SYELTQPPSVSVAPGQTARITCSGDALGDKYASWYQQKPGQAPVLVIYEDSKRPSGIPERFSGSNSGNTATLTISGTQAEDEADYYCQVDSVNYGYVFGGGTKLTVLG
notes: also called VA6-3
B2: VA6-57 (antibody, IgG1, V domains shown)
VH: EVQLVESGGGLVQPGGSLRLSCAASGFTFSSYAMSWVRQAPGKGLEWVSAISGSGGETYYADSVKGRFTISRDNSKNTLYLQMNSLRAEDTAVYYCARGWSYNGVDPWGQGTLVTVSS
VL: B1 VL
notes: Whole antibody (IgG1, lambda); built further on VA6-3
B3: VA6全抗体 (antibody, V domains shown)
VH: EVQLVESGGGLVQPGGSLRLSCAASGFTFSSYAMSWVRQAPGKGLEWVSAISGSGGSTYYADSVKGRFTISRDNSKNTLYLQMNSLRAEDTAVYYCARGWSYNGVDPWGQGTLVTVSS
VL: B1 VL with D90K, V92D
notes: Whole antibody from vectors pABL (lambda) and pABG1 (human IgG1), HEK293T transient expression

Where a chain is given by its changes, count along the chain named.

In this assay the target is T1, 重组人VEGF165. Put plainly: Biacore SPR, VEGF coupled on CM5 chip, whole antibody as analyte, 1:1 Langmuir fit.
Regarding B1, binding was put at a Kd of 5.27 nM; the koff (usually a measure of how fast the partners let go of each other) was 0.00149 s⁻¹; the kon – broadly, a measure of how fast the partners come together – was determined as 283000 M⁻¹ s⁻¹.

As to B2, the Kd (in general, the concentration at which binding is half-saturated) turned out to be 1.8 nM; the koff is 0.00096 s⁻¹; the kon is 550000 M⁻¹ s⁻¹.

Molecule B3 had a Kd of 12.7 nM, a koff of 0.000445 s⁻¹ and a kon of 35000 M⁻¹ s⁻¹.
